Test results: patent US9907791B2, “Ron inhibitors for use in preventing and treating bone loss” (UNIVERSITY OF UTAH RESEARCH FOUNDATION, priority 2014, dated 2018)

What was measured:
[1] = tested on: MDA-MB-231 control tumor cells; test: Intratibial MDA-MB-231 control tumor-induced osteolysis; assay type: in vivo, NOD.SCID mice; conditions: treated 3 days post tumor cell injection, sacrificed 30 days
Source text: (§1) All procedures involving mice and experimental protocols were approved by the Institutional Animal Care and Use Committee (IACUC) of the University of Utah. The RonTK−/− mice which reside on the FVB background, were crossed with NOD.SCID mice for an immune-compromised mouse model. As a control, wild-type FVB mice were also crossed with NOD.SCID mice. The STK−/− mice, which are on a C57BL/6 background, were compared to wild-type C57BL/6 mice as controls. Mice for all experiments were 6 to 8 weeks of age. For intratibial injections, 1×10^5 (PyMTor DU4475) or 3×10^5 (MDA-MB-231) tumor cells were resuspended in 10 μL matrigel and injected into the right tibia of anesthetized female FVB (PyMT) or NOD.SCID mice carrying various alleles of RON. Osteolysis was assessed by X-ray radiography. Dissected hindlimbs from mice sacrificed at the final time point in each experiment were placed in the Kodak In-vivo Multispectral Imaging System FX and exposed to X-ray radiography at 35 kV for 100 sec. Excess tumor tissue was removed from the bones prior to X-ray. Osteolytic lesions were quantified using Image J software (NCBI). All images were compared to the contralateral leg as an internal control.
For in vivo experiments, the OSI-296 inhibitor was dissolved in 40% Trappsol with 0.01 M HCl, and mice were treated at a concentration of 200 mg/kg daily by oral gavage. […]

[2] = tested on: PyMT-MSP tumor cells; test: Intratibial PyMT-MSP tumor-induced osteolysis; assay type: in vivo, mice
Source text: as §1
Hindlimb bones were excised from mice at the time of sacrifice and bones were fixed in 10% neutral-buffered formalin, decalcified in Formical-2000 (Decal Corporation, Tallman, N.Y.) for 8 days and embedded in paraffin for hematoxylin and eosin (H & E) or immunohistochemical staining. Osteoclast number was assessed as TRAP^+ multinucleated cells containing 4 or more nuclei and reported as TRAP^+ cells per field. Three sections per mouse and 5 fields per section were used for quantification with fields representing the entire length of the tibia. Tumor proliferation rate was reported as the number of cells which were positive for phospho-H3 staining compared to the number of unstained cells per field expressed as a percent. Three sections per mouse and 5 fields per section were used for quantification with analysis being restricted to within the bone marrow cavity. […]

[3] = tested on: c-Src; test: Western blot of osteoclast lysates, phospho-Src; assay type: cell-based, mice
Procedure: Cells were serum starved (0.5% FBS) for 3 hours prior to lysate collection. Inhibitors were added 1 hour prior to lysis and MSP was added 15 min prior to lysis when indicated. Cells were washed with 1×PBS and harvested in lysis buffer (25 mM Tris-HCl, pH 7.5, 0.42 M NaCl, 1.5 mM MgCl2, 0.5 mM EDTA, 1 mM DTT, 25% sucrose, and 0.1% Triton X-100) plus 100× protease arrest (Bioscience, Bozeman, Mont.) and 100× orthovanadate. Primary antibodies used for immunoblotting include: anti-MSP (Santa Cruz, sc-6090, Dallas, Tex.) at a 1:250 dilution, anti-pan Akt (Cell Signaling, #4691S, Beverly, Mass.) at a 1:1000 dilution, anti-pan Erk (Cell Signaling, #4695, Beverly, Mass.) at a 1:1000 dilution, anti-phospho Akt (Cell Signaling, #9271 L, Beverly, Mass.) at a 1:500 dilution, anti-phospho Erk (Cell Signaling, #4370S, Beverly, Mass.) at a 1:500 dilution, anti-Src (Cell Signaling, #2110, Beverly, Mass.) at a 1:500 dilution, and anti-phospho Src (Y416) (Cell Signaling, #2113, Beverly, Mass.) at a 1:500 dilution. The secondary antibodies used were HRP-conjugated anti-goat IgG (Santa Cruz, Dallas, Tex.) and anti-rabbit IgG (Santa Cruz, Dallas, Tex.). Chemiluminescent signals were detected using Immun-Star HRP (BioRad, Hercules, Calif.).

B1: muRANK-Fc: murine RANKL antagonist (Amgen) (protein)
chain: VTPPCTQERHYEHLGRCCSRCEPGKYLSSKCTPTSDSVCLPCGPDEYLDTWNEEDKCLLHKVCDAGKALVAVDPGNHTAPRRCACTAGYHWNSDCECCRRNTECAPGFGAQHPLQLNKDTVCTPCLLGFFSDVFSSTDKCKPWTNCTLLGKLEAHQGTTESDVVCSSSMTLRRPPKEAQAYLPS
modifications: left off: a dimerising Fc or GST
- osteolysis from control MDA-MB-231 tumor cells [1]: reduced osteolysis
- MSP-driven osteolysis in Ron TK−/− mice ([2]; Ron TK−/− mice, treatment began 3 days post tumor cell injection): did not reduce this further
- TRAP+ osteoclasts in tumor-bearing bones ([2]; TRAP staining of bone sections): lack of TRAP+ cells
- osteolysis from PyMT-MSP tumors ([2]; WT mice, treatment began 3 days post tumor cell injection): significant osteolysis even in the presence of the RANKL antagonist
- phosphorylated c-Src in WT osteoclasts [3]: decrease in phosphorylated c-Src
